In paper PMC7241105 one finds Kd data, which are given here for one substance.

For the assay, the target named is SARS-CoV-2 receptor binding domain (RBD) (SARS-CoV-2) (UniProt P0DTC2). In words: BLI.

CV30 (antibody): the Kd was found to be 3.6 nM. In other words, the single-digit nanomolar range.

The term Kd denotes the concentration at which binding is half-saturated. A high value points to weaker binding.
